Measured values from the supplement of paper PMC6757056.
± gives the standard deviation of the averaged measurements.

B1: library; a variant is named by its letters at N, in order (parent)
chain: GCUGUCACCGAGAAACUGUGAAGUAUAUCUUAAACCUGGGCACUUAAAAGAUAUAUGGAGUUAGUAGUGCAACCUGCUCGGUCUGAUGAGUCCNNNNNNGGACGAAACAGC

Columns and labels:
cyclic di-GMP [1] = variants of: B1; assay: FACS-Seq fitted mean relative fluorescence mCherry/BFP without ligand (log10 relative fluorescence); HEK293T; ligand: cyclic di-GMP (c-di-GMP-II aptamer); higher = higher reporter protein expression; conditions: ligand present: no
Procedure: (§1)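 Hammerhead (sTRSV) ribozyme switch libraries with a ligand aptamer grafted on stem I and a randomized N4-6 loop II, cloned into the 3' UTR of mCherry and transiently transfected into HEK293T cells; RNA-Seq 72 h post transfection with ligand added 1 h before transfection; RNA read count / plasmid DNA read count normalized to the non-cleaving sTRSVctl (x100), log10; sequences with >100 DNA reads. FACS-Seq: lentiviral library sorted into 6 bins after 48 h ligand, log-normal fit mean of mCherry/BFP scaled to controls. Printed sequences are partial switch sequences.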

cyclic di-GMP [2] = variants of: B1; assay: normalized RNA/DNA level without ligand (relative to sTRSVctl = 100) (log10 (% of sTRSVctl)); HEK293T; ligand: cyclic di-GMP (c-di-GMP-II aptamer); higher = less ribozyme self-cleavage, higher mRNA level; conditions: reporter: mCherry (pCS4076), ligand present: no
Procedure: as §1

cyclic di-GMP [3] = variants of: B1; assay: FACS-Seq fitted mean relative fluorescence mCherry/BFP with ligand (log10 relative fluorescence); HEK293T; ligand: cyclic di-GMP (c-di-GMP-II aptamer); ligand concentration (+) FACS-Seq: 1 mM; higher = higher reporter protein expression; conditions: ligand present: yes
Procedure: as §1

cyclic di-GMP [4] = variants of: B1; assay: normalized RNA/DNA level with ligand (relative to sTRSVctl = 100) (log10 (% of sTRSVctl)); HEK293T; ligand: cyclic di-GMP (c-di-GMP-II aptamer); ligand concentration (+) RNA-Seq: 1 mM; higher = less ribozyme self-cleavage, higher mRNA level; conditions: reporter: mCherry (pCS4076), ligand present: yes
Procedure: as §1

Variant | FACS-Seq fitted mean (log10) (cyclic di-GMP [1]) | normalized RNA/DNA level without ligand (log10) (cyclic di-GMP [2]) | FACS-Seq fitted mean (log10) (cyclic di-GMP [3]) | normalized RNA/DNA level with ligand (log10) (cyclic di-GMP [4])
UUCAAU | -0.187 ± 0.012 | 1.71 ± 0.03 | 0.267 ± 0.037 | 1.82 ± 0.14
CCCAGA | -0.192 ± 0.068 | 1.55 ± 0.021 | 0.0209 ± 0.061 | 1.74 ± 0.078
ACACGA | -0.4507 ± 0.0033 | 1.37 ± 0.16 | -0.174 ± 0.061 | 1.55 ± 0.11
GUAAGG | -0.295 ± 0.022 | 1.59 ± 0.078 | 0.0239 ± 0.038 | 1.74 ± 0.067
AACUAA | -0.473 ± 0.029 | 1.51 ± 0.035 | -0.168 ± 0.1 | 1.74 ± 0.11
CUCAUA | -0.575 ± 0.039 | 1.43 ± 0.079 | -0.298 ± 0.012 | 1.65 ± 0.14
ACUGGU | -0.466 ± 0.02 | 1.52 ± 0.024 | -0.166 ± 0.029 | 1.76 ± 0.079
CGCUUA | -0.545 ± 0.077 | 1.27 ± 0.17 | -0.264 ± 0.015 | 1.46 ± 0.036
CGGUAC | -0.413 ± 0.026 | 1.53 ± 0.13 | -0.0971 ± 0.017 | 1.72 ± 0.086
UGUAAA | 0.0683 ± 0.13 | 1.72 ± 0.019 | 0.3702 ± 0.0013 | 1.85 ± 0.086
CCAAGU | -0.377 ± 0.06 | 1.663 ± 0.013 | 0.0295 ± 0.007 | 1.82 ± 0.099
CCCCUG | -0.147 ± 0.12 | 1.69 ± 0.045 | 0.154 ± 0.1 | 1.84 ± 0.097
GUCACU | -0.159 ± 0.13 | 1.708 ± 0.0022 | 0.131 ± 0.035 | 1.85 ± 0.08
AGGAUG | -0.151 ± 0.021 | 1.48 ± 0.054 | -0.029 ± 0.059 | 1.63 ± 0.16
UCAAAA | -0.275 ± 0.04 | 1.46 ± 0.037 | -0.0447 ± 0.01 | 1.68 ± 0.15
ACACAG | -0.515 ± 0.016 | 1.44 ± 0.084 | -0.191 ± 0.074 | 1.68 ± 0.11
GUCGCG | -0.376 ± 0.016 | 1.76 ± 0.018 | -0.0454 ± 0.13 | 1.82 ± 0.071
CUUGAC | -0.287 ± 0.2 | 1.69 ± 0.024 | 0.101 ± 0.066 | 1.83 ± 0.085
UCGCAA | -0.351 ± 0.038 | 1.47 ± 0.019 | -0.0919 ± 0.063 | 1.69 ± 0.18
CCGCUU | -0.424 ± 0.011 | 1.557 ± 0.013 | -0.124 ± 0.0085 | 1.79 ± 0.076
UCGGUC | -0.238 ± 0.16 | 1.675 ± 0.0093 | 0.0705 ± 0.033 | 1.83 ± 0.1
CGGUGA | -0.266 ± 0.011 | 1.4 ± 0.13 | 0.0909 ± 0.043 | 1.64 ± 0.12
UACCCA | -0.0154 ± 0.2 | 1.73 ± 0.074 | 0.278 ± 0.097 | 1.86 ± 0.13
AACCAU | -0.0934 ± 0.098 | 1.6 ± 0.025 | 0.0926 ± 0.016 | 1.76 ± 0.15

Variant | FACS-Seq fitted mean (log10) (cyclic di-GMP [1]) | normalized RNA/DNA level without ligand (log10) (cyclic di-GMP [2]) | FACS-Seq fitted mean (log10) (cyclic di-GMP [3]) | normalized RNA/DNA level with ligand (log10) (cyclic di-GMP [4])
GUUAUG | -0.452 ± 0.02 | 1.57 ± 0.081 | -0.0804 ± 0.023 | 1.78 ± 0.09
GCUUCA | -0.32 ± 0.093 | 1.668 ± 0.013 | 0.00326 ± 0.00018 | 1.81 ± 0.11
GAAUAA | -0.287 ± 0.05 | 1.44 ± 0.067 | -0.0182 ± 0.045 | 1.68 ± 0.15
GAUUGG | -0.22 ± 0.02 | 1.63 ± 0.02 | 0.0818 ± 0.059 | 1.75 ± 0.093
UGGAAC | -0.221 ± 0.031 | 1.64 ± 0.033 | 0.11 ± 0.0057 | 1.83 ± 0.075
AAAAGG | -0.489 ± 0.057 | 1.49 ± 0.12 | -0.254 ± 0.005 | 1.66 ± 0.093
CCUUCA | -0.388 ± 0.025 | 1.6013 ± 0.00017 | -0.00437 ± 0.075 | 1.72 ± 0.15
GCAAUA | -0.419 ± 0.034 | 1.41 ± 0.079 | -0.0479 ± 0.074 | 1.63 ± 0.058
AAGCGA | -0.459 ± 0.0051 | 1.44 ± 0.1 | -0.202 ± 0.029 | 1.65 ± 0.13
GUAUAG | -1.32 ± 0.018 | 1.56 ± 0.12 | -1.05 ± 0.12 | 1.74 ± 0.063
CAGCUG | 0.189 ± 0.018 | 1.767 ± 0.0057 | 0.403 ± 0.038 | 1.84 ± 0.12
GCCGGU | 0.00404 ± 0.21 | 1.63 ± 0.03 | 0.3204 ± 0.0024 | 1.79 ± 0.087
CGUGAC | -0.217 ± 0.012 | 1.58 ± 0.081 | 0.0888 ± 0.11 | 1.74 ± 0.092
GCAGAG | -0.424 ± 0.029 | 1.4 ± 0.08 | -0.199 ± 0.03 | 1.58 ± 0.043
AUGACU | -1.21 ± 0.091 | 1.71 ± 0.0041 | -0.93 ± 0.06 | 1.85 ± 0.11
CGUCUU | -0.365 ± 0.028 | 1.49 ± 0.033 | -0.103 ± 0.064 | 1.66 ± 0.12
GUAAAG | -0.104 ± 0.13 | 1.55 ± 0.078 | 0.22888 ± 7.2e-05 | 1.74 ± 0.065
AGAAAG | -0.223 ± 0.077 | 1.5 ± 0.058 | 0.0417 ± 0.031 | 1.69 ± 0.1
UUAUCC | -0.109 ± 0.15 | 1.76 ± 0.023 | 0.218 ± 0.082 | 1.86 ± 0.084
CGCAUG | -0.455 ± 0.031 | 1.627 ± 0.0082 | -0.162 ± 0.14 | 1.8 ± 0.12
ACAUAA | -0.3987 ± 0.0024 | 1.39 ± 0.12 | -0.112 ± 0.0021 | 1.63 ± 0.063
CGGGGA | -0.489 ± 0.015 | 1.54 ± 0.11 | -0.28 ± 0.044 | 1.64 ± 0.093
CAUAAA | -0.673 ± 0.064 | 1.23 ± 0.14 | -0.363 ± 0.021 | 1.42 ± 0.066
CGCUCU | -0.865 ± 0.06 | 1.54 ± 0.049 | -0.64 ± 0.039 | 1.73 ± 0.1

Variant | FACS-Seq fitted mean (log10) (cyclic di-GMP [1]) | normalized RNA/DNA level without ligand (log10) (cyclic di-GMP [2]) | FACS-Seq fitted mean (log10) (cyclic di-GMP [3]) | normalized RNA/DNA level with ligand (log10) (cyclic di-GMP [4])
AGAUUA | -0.549 ± 0.084 | 1.49 ± 0.078 | -0.245 ± 0.019 | 1.69 ± 0.15
AAGAGG | -0.546 ± 0.022 | 1.53 ± 0.052 | -0.313 ± 0.016 | 1.68 ± 0.15
AAGAUA | -0.4038 ± 0.0036 | 1.42 ± 0.094 | -0.0468 ± 0.065 | 1.63 ± 0.063
GCCAAG | -0.6955 ± 0.0047 | 1.542 ± 0.0066 | -0.362 ± 0.081 | 1.67 ± 0.19
GAAUGC | 0.00373 ± 0.18 | 1.63 ± 0.013 | 0.31 ± 0.049 | 1.75 ± 0.12
GCUCUU | -0.277 ± 0.12 | 1.66 ± 0.07 | -0.215 ± 0.015 | 1.82 ± 0.16
GAGUAG | -0.7206 ± 0.0025 | 1.84 ± 0.075 | -0.563 ± 0.061 | 1.89 ± 0.12
CCCCAU | -0.0362 ± 0.2 | 1.68 ± 0.022 | 0.163 ± 0.051 | 1.83 ± 0.11
CCACUA | -0.725 ± 0.038 | 1.43 ± 0.13 | -0.348 ± 0.019 | 1.66 ± 0.067
UCCUCG | 0.369 ± 0.066 | 1.797 ± 0.0034 | 0.448 ± 0.0052 | 1.91 ± 0.074
UAGGGA | -0.172 ± 0.12 | 1.53 ± 0.039 | -0.000875 ± 0.13 | 1.68 ± 0.14
CGACUG | -0.0298 ± 0.017 | 1.703 ± 0.0006 | 0.297 ± 0.061 | 1.83 ± 0.074
CCUCCU | -0.211 ± 0.0029 | 1.678 ± 0.011 | 0.278 ± 0.026 | 1.77 ± 0.098
AUGCCA | -0.283 ± 0.032 | 1.704 ± 0.0062 | 0.176 ± 0.089 | 1.84 ± 0.08
GUUGAG | -0.16 ± 0.072 | 1.55 ± 0.081 | 0.0985 ± 0.045 | 1.72 ± 0.11
GCUAUG | -0.741 ± 0.034 | 1.58 ± 0.075 | -0.505 ± 0.019 | 1.72 ± 0.078
UCACCA | 0.0707 ± 0.26 | 1.694 ± 0.0047 | 0.366 ± 0.022 | 1.84 ± 0.14
AUGUAU | -0.148 ± 0.067 | 1.61 ± 0.036 | 0.196 ± 0.014 | 1.82 ± 0.052
AUUCCA | -0.182 ± 0.1 | 1.7 ± 0.044 | -0.0711 ± 0.041 | 1.88 ± 0.14
AAAGAU | 0.0924 ± 0.13 | 1.52 ± 0.037 | 0.367 ± 0.016 | 1.71 ± 0.17
UCCCUG | 0.234 ± 0.092 | 1.776 ± 0.0073 | 0.44 ± 0.0075 | 1.89 ± 0.13
UAUAGU | -0.943 ± 0.17 | 1.65 ± 0.03 | -0.713 ± 0.099 | 1.79 ± 0.068
AAGCCA | -0.228 ± 0.096 | 1.63 ± 0.029 | -0.278 ± 0.12 | 1.79 ± 0.16
